Measurements as given in IntAct's records for PubMed 15563508.

B1: Carbonic anhydrase 4 (Homo sapiens), P22748 (parent)
chain: MRMLLALLALSAARPSASAESHWCYEVQAESSNYPCLVPVKWGGNCQKDRQSPINIVTTKAKVDKKLGRFFFSGYDKKQTWTVQNNGHSVMMLLENKASISGGGLPAPYQAKQLHLHWSDLPYKGSEHSLDGEHFAMEMHIVHEKEKGTSRNVKEAQDPEDEIAVLAFLVEAGTQVNEGFQPLVEALSNIPKPEMSTTMAESSLLDLLPKEEKLRHYFRYLGSLTTPTCDEKVVWTVFREPIQLHREQILAFSQKLYYDKEQTVSMKDNVRPLQQLGQRTVIKSGAPGRPLPWALPALLGPMLACLLAGFLR
partner: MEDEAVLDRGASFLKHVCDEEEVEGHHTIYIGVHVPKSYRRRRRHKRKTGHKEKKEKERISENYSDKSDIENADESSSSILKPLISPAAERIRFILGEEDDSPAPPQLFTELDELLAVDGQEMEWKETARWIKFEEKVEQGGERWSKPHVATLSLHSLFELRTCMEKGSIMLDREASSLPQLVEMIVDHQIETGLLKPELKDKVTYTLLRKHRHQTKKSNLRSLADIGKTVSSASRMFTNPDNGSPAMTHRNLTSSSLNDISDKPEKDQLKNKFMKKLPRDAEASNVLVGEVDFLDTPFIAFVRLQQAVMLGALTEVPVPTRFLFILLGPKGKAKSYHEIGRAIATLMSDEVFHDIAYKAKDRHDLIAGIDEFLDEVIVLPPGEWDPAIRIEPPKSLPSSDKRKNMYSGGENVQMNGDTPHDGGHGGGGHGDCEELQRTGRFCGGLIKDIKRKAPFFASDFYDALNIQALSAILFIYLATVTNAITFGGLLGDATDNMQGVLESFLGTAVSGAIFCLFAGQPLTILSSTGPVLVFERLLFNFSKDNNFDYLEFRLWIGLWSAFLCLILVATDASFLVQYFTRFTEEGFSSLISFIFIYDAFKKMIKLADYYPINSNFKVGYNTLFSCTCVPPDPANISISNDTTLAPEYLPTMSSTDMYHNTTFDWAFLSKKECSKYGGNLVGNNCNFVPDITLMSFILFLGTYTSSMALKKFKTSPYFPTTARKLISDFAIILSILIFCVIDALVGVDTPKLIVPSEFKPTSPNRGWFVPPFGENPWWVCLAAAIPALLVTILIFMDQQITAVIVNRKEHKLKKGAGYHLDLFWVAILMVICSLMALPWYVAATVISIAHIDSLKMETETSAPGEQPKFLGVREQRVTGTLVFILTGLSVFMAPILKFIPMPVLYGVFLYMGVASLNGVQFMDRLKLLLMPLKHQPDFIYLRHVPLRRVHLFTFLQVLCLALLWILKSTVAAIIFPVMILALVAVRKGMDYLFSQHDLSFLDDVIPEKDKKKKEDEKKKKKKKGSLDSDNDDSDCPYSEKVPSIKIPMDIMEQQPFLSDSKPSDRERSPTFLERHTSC

Variants of: B1
Details: with s4a4_human SLC4A4, Q9Y6R1

effect of a mutation on the interaction	Variant
decreasing interaction	MRMLLALLALSAAWPSASAESHWCYEVQAESSNYPCLVPVKWGGNCQKDRQSPINIVTTKAKVDKKLGRFFFSGYDKKQTWTVQNNGHSVMMLLENKASISGGGLPAPYQAKQLHLHWSDLPYKGSEHSLDGEHFAMEMHIVHEKEKGTSRNVKEAQDPEDEIAVLAFLVEAGTQVNEGFQPLVEALSNIPKPEMSTTMAESSLLDLLPKEEKLRHYFRYLGSLTTPTCDEKVVWTVFREPIQLHREQILAFSQKLYYDKEQTVSMKDNVRPLQQLGQRTVIKSGAPGRPLPWALPALLGPMLACLLAGFLR [R14W]
